Experimental data as given in the supplement of paper PMC10567573.
± gives the standard deviation.

Experiment: protein stability index of a GFP-peptide fusion (GPS, HEK-293T) (PSI 1-6); higher = more stable
Conditions: c terminus: a fixed tail appended
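Also: 24-mer peptide tiles fused after GFP, lentivirally expressed, FACS-sorted into six equal bins by GFP/DsRed ratio, decoded by Illumina sequencing, PSI is the read-weighted mean bin number.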

| Sequence | protein stability index (treatment: DMSO) | protein stability index (treatment: MLN4924 1 uM, 8 h) |
| --- | --- | --- |
| CRADHGLLLERAAAGSPRSPGPLP [ISL2] | 3.47 ± 0.46 | 3.1 ± 0.43 |
| VAVDSNLRVRELQRKVDGIQKAYD [CCDC89] | 3.85 ± 0.21 | 3.94 ± 0.39 |
| DSKSLKTHQTQPGIRRARDKALSG [NET1] | 4.63 ± 0.16 | 4.7 ± 0.18 |
| ERRPRRVEAERPHSLIGVIRETVL [FAM189A2] | 3.64 ± 0.32 | 3.91 ± 0.41 |
| EKTQKNQCWKSLFIDTYSDVGRYI [FBXO3] | 2.53 ± 0.73 | 2.15 ± 0.33 |
| LNRRNGSLRIALSEHLKQRREVAK [EDNRA] | 3.27 ± 0.45 | 3.25 ± 0.27 |
| RSQSSIVPEEEQAANKGEEKKDDE [SMARCE1] | 5.63 ± 0.25 | 5.68 ± 0.14 |
| YLPTRGGTTMASGGRFRCPSCRHE [TRIM55] | 2.69 ± 0.57 | 3.42 ± 0.43 |
| FVAENSSLHPESGQENDATSPHFS [CD69] | 3.74 ± 0.56 | 4.23 ± 0.42 |
| KKREKQREQMEQMKQRIAEENIMK [FAM50A] | 4.8 ± 0.18 | 4.78 ± 0.41 |
| LLYKDGFSTILHLLLGSPHPAATA [LPCAT4] | 2.71 ± 0.28 | 2.57 ± 0.54 |
| WAQLEAPARLLLQALQAGPEGARR [FANCE] | 2.78 ± 0.37 | 3.08 ± 0.29 |
| ERLKQEIERLTREVEATRRALIDR [DDIT3] | 3.6 ± 0.24 | 3.56 ± 0.29 |
| SLKDGLSDSDSELSSSEGLEPGSA [PSD2] | 5.47 ± 0.28 | 5.6 ± 0.13 |
| FVEKNPTIVNFPITNVDLREYLSE [USP39] | 2.73 ± 0.66 | 3.01 ± 1 |
| TQIIGEQNARLAELERKLREVMES [FBXO28] | 3.71 ± 0.22 | 3.68 ± 0.12 |
| LGHAAAFSDDCDLPSAQDINRLVG [GLT8D2] | 4.23 ± 0.18 | 4.43 ± 0.24 |

| Sequence | protein stability index (treatment: DMSO) | protein stability index (treatment: MLN4924 1 uM, 8 h) |
| --- | --- | --- |
| TSDDNLLKNIELFDKLALRFHGRL [KCTD13] | 2.48 ± 0.2 | 2.46 ± 0.4 |
| FGSSVPEKQSRCVNIEWHRFRFGQ [WSB1] | 2.07 ± 0.34 | 2.12 ± 0.24 |
| SGHKLYIFLFQDILVLTRPVTRNE [NET1] | 2.6 ± 0.56 | 2.41 ± 0.48 |
| SIYPMEVLKTRMALRKTGQYSGML [SLC25A25] | 2.48 ± 0.36 | 2.6 ± 0.52 |
| DPIIDSWEVVTSMGTQRCDAGVCV [KLHL12] | 3 ± 0.21 | 2.95 ± 0.39 |
| CRGNQHDVPVIPLDVVDNQTEKLD [CASP6] | 5.05 ± 0.26 | 5.03 ± 0.13 |
| FAWPFYQPVDAIKLNLPDYHKIIK [BRD3] | 2.24 ± 0.67 | 2.19 ± 0.25 |
| QSMSEEEREKVTPLMVKGFRDAAE [SEPHS2] | 5.01 ± 0.27 | 4.88 ± 0.24 |
| GDVHTVRKMLEQGYSPNGRDANGW [ASB7] | 3.51 ± 0.23 | 3.71 ± 0.24 |
| PSFLSQTGHGVSRGPSPVVLGSQD [FCHO1] | 4.33 ± 0.3 | 4.3 ± 0.32 |
| DTINRSVLDFDFEKLCSISLSHIN [USP39] | 2.6 ± 0.32 | 2.79 ± 0.24 |
| VVGLHAASKDPREVREARDHKEPK [EHMT1] | 5.06 ± 0.13 | 5.11 ± 0.052 |
| GEFPSPVSISIISSTSGGSGYGFR [KRT71] | 2.65 ± 0.34 | 3.04 ± 0.64 |
| RGKNKMAAQNCRKRKLDTILNLER [NFE2L1] | 3.57 ± 0.33 | 3.63 ± 0.24 |
| LGMVGLFGTIISGIQLLIVEYKDI [SLC35F2] | 3.16 ± 0.42 | 3.53 ± 0.41 |
| MEGLAGYVYKAASEGKVLTLAALL [FEM1B] | 2.22 ± 0.31 | 2.09 ± 0.44 |
